Substitutions are numbered along the chain they refer to.

For eleven molecules, Kd, koff and kon results are on record in patent US20260209316A1 (US Dept. of Health and Human Services, published 2026).

First the molecules themselves.
T1: full-length Sudan GP (GPFL) (Sudan virus (SUDV), UniProt Q7T9D9 33-650)
T1 construct: also called Sudan GPFL; GP(S)FL
T1 sequence: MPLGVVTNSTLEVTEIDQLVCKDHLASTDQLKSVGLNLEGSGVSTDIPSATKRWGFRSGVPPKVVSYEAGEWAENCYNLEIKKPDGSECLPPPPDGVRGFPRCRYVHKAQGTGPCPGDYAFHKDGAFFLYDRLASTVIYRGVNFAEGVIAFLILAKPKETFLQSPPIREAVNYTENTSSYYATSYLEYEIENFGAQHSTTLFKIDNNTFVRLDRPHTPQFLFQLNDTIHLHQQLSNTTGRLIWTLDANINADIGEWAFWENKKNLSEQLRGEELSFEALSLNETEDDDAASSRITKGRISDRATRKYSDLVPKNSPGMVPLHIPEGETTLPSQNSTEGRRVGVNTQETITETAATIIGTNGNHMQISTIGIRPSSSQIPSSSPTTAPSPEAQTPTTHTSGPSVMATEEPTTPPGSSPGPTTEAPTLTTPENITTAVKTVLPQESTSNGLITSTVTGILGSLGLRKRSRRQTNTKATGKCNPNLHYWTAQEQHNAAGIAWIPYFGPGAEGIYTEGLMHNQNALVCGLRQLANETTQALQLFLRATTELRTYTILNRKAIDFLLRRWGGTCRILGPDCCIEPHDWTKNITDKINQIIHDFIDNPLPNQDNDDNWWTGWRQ

B1: Fab generated from 315S (Fab, V domains shown)
VH: EVQLVESGGGVVQPGRSLRLSCAASGFTFKTYTMHWVRQAPGKGLEWVAVITDDGVNKKYADSVKGRFTISRDNSKNTLYLQMNSLRLEDTAVYYCARSVVVLAAYPLDYWGQGTMVTVSS
VL: DIQMTQSPSSLSASVGDRVTITCRASQTISTYLHWYQQRPGKAPKLLIYAASSLQSGVPSRVSGSGSGTDFTLTITSLQPEDFATYYCLQTYSLPLTFGGGTNVEIK
notes: also called 315S Fab
B2: Fab generated from 335S (Fab, V domains shown)
VH: EVQLVESGGGVVQPGRSLRLSCAASGFSFSNYAMHWVRQAPGKGLEWVAVTWYDGSSKYHADSVKGRFTISRDNSKNTLYLQMNSLRAEDTAVYYCARWGMGIVASPGNVLNYYYFMDVWGQGTTVIVSS
VL: SYELTQPPSVSVSPGQTARITCSGNPLPKKHTYWYQQKPGQAPVLMIYKDSERPSRIPERFSGSSSGTTVTLTISGVQAEDEADYYCQSADSTGIVVFGGGTKLTVL
notes: also called 335S Fab
B3: Fab generated from 528S (Fab, V domains shown)
VH: EVQLAESGGGVVQPGRSLRLSCAASGFTFNSYGMHWVRQAPGKGLEWVAVIWDDGSKKYYADSVKGRFTISRDNSKNTLFLQMNSLRAEDTAVYYCARETIMFTFGEVIVSSRDNYYMDVWGKGTTVTVSS
VL: EIVLTQSPATLSLSPGERATLSCRASQSVSNYLAWYQQKPGQAPRLLIYDASTRAIGIPARFSGVGSGTDFTLTISSLEPEDFAVYYCQQRSNWPPLTFGGGTKVEIK
notes: also called 528S Fab
B4: Fab generated from 285S (Fab, V domains shown)
VH: QVQLVQSGAEVKKPGSSVKVSCKASGGTFSTYAITWVRQAPGQGLEWMGRIIPILRVANYAQKFQGRVTITADSSTSTAYMELSSLRSEDTAVYYCANLLAYCGGDCRSDYWGQGTLVTVSS
VL: EIVLTQSPGTLSLSPGERATLSCRASQSVKNSYLAWYHQKPGQAPRLLIYGASSRATGIPDRFSGSGSGTDFTLTISRLEPEDFAVYYCQQYGSSLWTFGQGTKVDVK
B5: Fab generated from 578S (Fab, V domains shown)
VH: EVQLVESGGGVVQPGRSLRLSCAASGFTFSSYELHWVRQAPGKGLEWVAVISYDGSSKYYADSLKGRFTISRDNSKNTLSLQMNSLRAEDTAMYYCVRQSEAYCSDGRCDWRRALDIWGQGTMVTVSP
VL: DIQMTQSPSSLSASVGDRVTITCQASQDIKNYLNWYQQKPGKAPKLLIYDVSKLETGVPSRFSGSGSGTDFSFTISSLQPEDIATYYCQQYDNLPSYTFGQGTKLEIK
notes: also called 578S Fab
B6: Fab generated from 338S (Fab, V domains shown)
VH: EVQLVESGGGVVQPGRSLRLSCAASGFTFSQYGMHWVRQAPGKGLECVAVIWFDGSKKYYGDSVKGRFTISRDNSKNTLYLQMNSLRAEDTAVYFCARESLYYYDSGGHYYERGRIDYWGQGTLVTVSS
VL: DIQMTQSPSSLSASVGDRVTITCRASQDISNFLAWFQQKPGKAPKSLIYAASSLLSGVPSKFSGSGSGTDFTLTISSLQPEDFATYYCQQYNSYPPTFGQGTKLEIK
B7: Fab generated from 365S (Fab, V domains shown)
VH: EVQLVESGGGLVQPGGSLRLSCAASGLTFSAYEMNWVRQAPGKGLEWVSHITTSGSAIYYADSVKGRFTISRDNAKNSLHLQMNRLRADDTAVYFCARDSTIVQCSGTSCHVSTYSYMDVWGKGTTVTVSS
VL: EIVLTQSPATLSLSPGERATLSCRASQSVTTYLAWYQHKPGQAPRLLIYDASKRATGIPARFSGSGSGTDFTLTISSLEPEDFAVYHCQQRSSWPPITFGQGTRLEIK
notes: also called 365S Fab
B8: Fab generated from 377S (Fab, V domains shown)
VH: QVQLVQSGAEVKKPGSSVKVSCKASGGTFSNYAINWVRQAPGQGLEWMGRTIPFLGLTNYAENFQARVTITADKSTGTSYMQLSSLRSEDTAVYFCAKAATSGWSPFDNWGQGTLVTVSS
VL: EIVLTQSPGTLSLSPGERATLSCRASQSISSSYFGWYQQKPGQAPRLLIYGASRRAAGIPDRFSCSGSGTDFTLTISRLEPEDFGVYYCQQYGSSPTFGQGTKVEIK
B9: Fab generated from 203S (Fab, V domains shown)
VH: QVQLVQSGAEVKKPGSSVKVSCKASGGTFSSYAISWVRQAPGQGLEWLGRILPALGLANYAQKYQDRVKITADKSTSTAYMELSRLGSEDTAVYYCARDRWVGAARRGQYFDYWGQGTQVTVSS
VL: DIQMTQSPATLSASVGDRVTITCRASQSIGTWLAWYQQKPGKAPKLLIYDASSLESGVPPRFSGSGSETEFTLTISSLQPDDFATYYCHQYKSYSYTFGQGTKLEIK
notes: also called 203S Fab
B10: Fab generated from 382S (Fab, V domains shown)
VH: QVQLVQSGAEVKKPGSSVKVSCKASGGTFSNYGISWVRQAPGQGLEWMGRNIPIIGIANYAQKFQDRVTITADKSTSTVFMELRSLRYEDTAVYYCARDPLAARRGNWFDPWGQGTLVTVSS
VL: B9 VL with A9S, I29V, G30S, T31S, S53T, E55Q, P60S, E68G, H89Q, K92N
notes: also called 382S Fab
B11: Fab generated from 102S (Fab, V domains shown)
VH: EVQLVESGGGLVQPGGSLRLSCSASGFTFHSYDMNWARQAPGKGLEWVSEISSSGQSKNYADSVRGRFTISRDNAKNSLYLQINSLRSEDTAVYYCARVGFVAKFGSDFSITHGTYYLDYWGQGTLVTVSS
VL: B3 VL with E1Q, I2L, T53N, I56P, I58V, V65S, T72S, Q89L, L97W, G101Q

The first assay addresses T1, full-length Sudan GP (GPFL). Nature of the assay: BLI, Fab, pH 5.3. A general note: Biolayer interferometry detects binding as a change in optical thickness at a sensor tip.
As to B1, the Kd (commonly a measure of binding affinity in units of concentration) was found to be 4.26 nM; the koff (as a rule, the rate constant with which the complex falls apart) came to 8.93e-05 s⁻¹; the kon (commonly a measure of how fast the partners come together) was determined as 21000 M⁻¹ s⁻¹.
Regarding B2, binding was put at a Kd of 12.6 nM, the off-rate constant (koff) was 0.000352 s⁻¹ and the kon turned out to be 27800 M⁻¹ s⁻¹.
Molecule B3 displayed a dissociation constant Kd of 5.58 nM, a koff of 4.65e-05 s⁻¹ and a kon of 8330 M⁻¹ s⁻¹.
Taken in the same sequence, the figures for B4 were 18.2 nM, 0.000305 s⁻¹ and 16800 M⁻¹ s⁻¹.
For the molecule B5, the Kd was 334 nM, the koff was 0.000695 s⁻¹ and the kon is 2100 M⁻¹ s⁻¹.
The molecule B6 returned a Kd of 23.7 nM, an off-rate constant (koff) of 0.000418 s⁻¹ and a kon of 17600 M⁻¹ s⁻¹.
Consider B7, for which binding was put at a Kd of 57.7 nM, the koff was 0.00362 s⁻¹ and the kon is 62800 M⁻¹ s⁻¹.
The like results for B8 were, in that order, 63.7 nM, 0.000571 s⁻¹ and 8970 M⁻¹ s⁻¹.
Consider B9, for which binding was characterised by a dissociation constant (Kd) of 118 nM, the koff is 0.00046 s⁻¹ and the kon worked out at 3880 M⁻¹ s⁻¹.
The like results for B10 were, in that order, 31.3 nM, 0.000452 s⁻¹ and 14500 M⁻¹ s⁻¹.

For the next assay the target is unchanged. Kind of assay: BLI, Fab, pH 7.4.
B1: the Kd worked out at 8.37 nM, the koff was 0.000303 s⁻¹ and the kon was found to be 36200 M⁻¹ s⁻¹.
Taken in the same sequence, the figures for B2 were 5.6 nM, 0.000496 s⁻¹ and 88500 M⁻¹ s⁻¹.
The like results for B3 were, in that order, 9.11 nM, 0.000387 s⁻¹ and 42500 M⁻¹ s⁻¹.
As for B11, binding was characterised by a dissociation constant (Kd) of 91.2 nM, the koff stood at 0.00504 s⁻¹ and the association rate constant (kon) was determined as 55300 M⁻¹ s⁻¹.
As to B4, binding was characterised by a dissociation constant (Kd) of 6.11 nM, the koff was found to be 0.000258 s⁻¹ and the kon came out at 42200 M⁻¹ s⁻¹.
B5 gave a Kd of 97.1 nM, a koff of 0.000404 s⁻¹ and a kon of 4200 M⁻¹ s⁻¹.
The like results for B6 were, in that order, 27.4 nM, 0.000632 s⁻¹ and 23100 M⁻¹ s⁻¹.
The like results for B7 were, in that order, 102 nM, 0.00171 s⁻¹ and 16800 M⁻¹ s⁻¹.
The like results for B8 were, in that order, 36.7 nM, 0.000631 s⁻¹ and 17200 M⁻¹ s⁻¹.
Consider B9, for which the dissociation constant Kd came out at 26.1 nM, the koff came out at 0.000376 s⁻¹ and the kon is 14400 M⁻¹ s⁻¹.
In the case of B10, binding was put at a Kd of 26 nM, the koff was 0.000422 s⁻¹ and the on-rate constant (kon) was determined as 16200 M⁻¹ s⁻¹.
